The source of these data is patent publication US20100172925A1, “HLA-A2-RESTRICTED T-CELL EPITOPES OF THE RESPIRATORY SYNCYTIAL VIRUS FUSION PROTEIN AS PEPTIDE-BASED VACCINES” (priority 2009, published 2010).

“Also recorded” adds a separate entry of the source. No end group written: not given here.

The test system of one series is eosinophile count in peripheral blood or lung.
Assay: not given
The class given is in vivo, mouse. The following applies: peptide-immunized mice challenged with RSV; data not shown.
In the case of VILLSLIAV [compound 23], the “eosinophilia (eosinophile count in peripheral blood or lung)” value is recorded as “not eosinophilia”.

For YMLTNSELL [compound 14], the “eosinophilia (eosinophile count in peripheral blood or lung)” value was “absence of pulmonary eosinophilia”.

The target of a further series is T1, HLA-A*0201 molecules (Homo sapiens, UniProt P04439, D140Y/D185E/D98H/E176V/E277Q/G131W/G231S/I119V/I121R/I166T/I218V/L300P/L318F/N151K/N90K/P208A/P217A/Q86G/Q94H/R138H/R169H/T345S).
T1 construct: T2 cell (which expressing HLA-A*0201)-stabilization assay; endogenous in cells; host or cells: T2 cells
The series is described as follows: T2 cell-stabilization assay (T2-based HLA-A*0201 binding). The following applies: T2 cells, peptide 50 μg/mL; moderate binding affinity.
As for “SVGNTLYYV (F474-482) [compound 18, 9-mer synthetic peptide from the F protein of RSV-B1 strain]”, the “binding affinity higher than the baseline” value turned out to be 10%. Still for that read-out and setting: the same measure for “SLIAVGLLL (F563-571) [compound 25, 9-mer synthetic peptide from the F protein of RSV-B1 strain]”: 10%. Regarding “FLLGVGSAI (F163-171) [compound 6, 9-mer synthetic peptide from the F protein of RSV-B1 strain]”, the “binding affinity higher than the baseline” value is reported as 10%. Same read-out and setting: as for “TLLLWVLLL (F5-13) [compound 1, 9-mer synthetic peptide from the F protein of RSV-B1 strain]”, the figure is 10%; as for “ALLSTNKAV (F193-201) [compound 8, 9-mer synthetic peptide from the F protein of RSV-B1 strain]”, 10%.

Still in this series, the particulars now being: T2 cells, peptide 50 μg/mL; ratio to negative control (MFI=1).
As for “LLSLIAVGL (F561-569) [compound 24, 9-mer synthetic peptide from the F protein of RSV-B1 strain]”, the “mean of fluorescence intensity (MFI) ratio, binding to HLA-A*0201” value (from here on “mean … (MFI) ratio, binding to HLA-A*0201”) is on record as “about 1.5”. “LMSNNVQIV (F296-304) [compound 16, 9-mer synthetic peptide from the F protein of RSV-B1 strain]”: the “mean … (MFI) ratio, binding to HLA-A*0201” value is “about 1.5”. Consider “KLMSNNVQI (F295-303) [compound 15, 9-mer synthetic peptide from the F protein of RSV-B1 strain]”, for which the “mean … (MFI) ratio, binding to HLA-A*0201” value is on record as “about 1.5”.

Turning to “LLSTNKAVV (F194-202) [compound 9, 9-mer synthetic peptide from the F protein of RSV-B1 strain]”, the “mean … (MFI) ratio, binding to HLA-A*0201” value is given as “about 1.5”.

In a further series the test system is lungs of peptide-immunized mice infected with RSV. In words: Pathological staining of CD4+ and CD8+ T cells in lungs of peptide-immunized, RSV-infected mice. The class given is in vivo, mouse.
Details: not given
The source says: A recent study has generally questioned the role of CTLs in the pathogenesis of human RSV infection. Very few CD8^+ T cells in the lung infiltrates were found in human infants infected with lethal RSV. Additionally, there was little evidence for T cell cytokines in nasal secretion and few CTL can be recovered by BAL from the infants with bronchiolitis.
On to VILLSLIAV [compound 23], for which the “infiltrated CD4+ and CD8+ T cells in the lungs” value was “more infiltrated CD4^+ and CD8^+ T cells; also recorded: severe CD8^+ lymphocytic inflammation”. In the case of KIMTSKTDV [compound 17], the “infiltrated CD4+ and CD8+ T cells in the lungs” value was “few infiltrated CD4^+ and CD8^+ T cells”. The same measure, in the same setting: the same measure for AITTILAAV [compound 3]: “few infiltrated CD4^+ and CD8^+ T cells”; for YMLTNSELL [compound 14]: “few infiltrated CD4^+ and CD8^+ T cells”.
